# Test results from publication PMC10397247.
# T1: 4H3843-bN
# T1 chain: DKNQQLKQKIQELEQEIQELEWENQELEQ
# T2: 4H4001-bN
# T2 chain: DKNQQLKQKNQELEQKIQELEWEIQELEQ
# T3: 4H462-bN
# T3 chain: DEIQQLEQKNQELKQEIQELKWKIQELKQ
# T4: 4H568-bN
# T4 chain: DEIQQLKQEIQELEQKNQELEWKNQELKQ
# T5: 4H607-bN
# T5 chain: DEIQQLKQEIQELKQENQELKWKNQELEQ
# T6: 4H687-bN
# T6 chain: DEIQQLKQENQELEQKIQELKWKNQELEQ
# T7: 4H72-bN
# T7 chain: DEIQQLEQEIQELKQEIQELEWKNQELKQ
# T8: 4H797-bN
# T8 chain: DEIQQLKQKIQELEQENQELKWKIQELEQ
# T9: 4H883-bN
# T9 chain: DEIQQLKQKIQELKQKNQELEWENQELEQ
# T10: 4H918-bN
# T10 chain: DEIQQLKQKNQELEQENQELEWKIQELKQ
# T11: 4H953-bN
# T11 chain: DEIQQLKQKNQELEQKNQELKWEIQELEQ
# T12: 4H967-bN
# T12 chain: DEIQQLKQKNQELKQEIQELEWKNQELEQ
# T13: 4H234-AA
# T13 chain: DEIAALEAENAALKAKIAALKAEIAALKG
# T14: 4H2354-AA
# T14 chain: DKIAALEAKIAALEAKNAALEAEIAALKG
# T15: 4H2393-AA
# T15 chain: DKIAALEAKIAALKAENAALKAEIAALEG
# T16: 4H2466-AA
# T16 chain: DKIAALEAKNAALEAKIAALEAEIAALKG
# T17: 4H2505-AA
# T17 chain: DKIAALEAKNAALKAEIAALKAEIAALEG
# T18: 4H2575-AA
# T18 chain: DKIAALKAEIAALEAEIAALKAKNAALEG
# T19: 4H2617-AA
# T19 chain: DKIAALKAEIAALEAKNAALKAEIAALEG
# T20: 4H2642-AA
# T20 chain: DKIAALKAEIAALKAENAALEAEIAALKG
# T21: 4H2729-AA
# T21 chain: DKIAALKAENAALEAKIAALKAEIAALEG
# T22: 4H2754-AA
# T22 chain: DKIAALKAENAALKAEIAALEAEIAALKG
# T23: 4H2837-AA
# T23 chain: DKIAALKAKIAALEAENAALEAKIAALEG
# T24: 4H2883-AA
# T24 chain: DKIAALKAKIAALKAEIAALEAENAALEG
# T25: 4H2944-AA
# T25 chain: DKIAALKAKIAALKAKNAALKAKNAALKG
# T26: 4H2949-AA
# T26 chain: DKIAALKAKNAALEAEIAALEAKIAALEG
# T27: 4H3112-AA
# T27 chain: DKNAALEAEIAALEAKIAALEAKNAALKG
# T28: 4H317-AA
# T28 chain: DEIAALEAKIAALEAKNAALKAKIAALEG
# T29: 4H3343-AA
# T29 chain: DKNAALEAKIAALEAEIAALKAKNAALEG
# T30: 4H335-AA
# T30 chain: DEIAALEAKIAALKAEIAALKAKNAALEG
# T31: 4H342-AA
# T31 chain: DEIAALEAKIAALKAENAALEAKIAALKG
# T32: 4H3427-AA
# T32 chain: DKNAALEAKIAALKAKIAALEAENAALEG
# T33: 4H3606-AA
# T33 chain: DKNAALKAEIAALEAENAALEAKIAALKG
# T34: 4H3627-AA
# T34 chain: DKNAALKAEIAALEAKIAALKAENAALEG
# T35: 4H3655-AA
# T35 chain: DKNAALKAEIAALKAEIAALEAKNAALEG
# T36: 4H3844-AA
# T36 chain: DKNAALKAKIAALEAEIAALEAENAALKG
# T37: 4H3921-AA
# T37 chain: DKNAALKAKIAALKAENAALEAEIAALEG
# T38: 4H429-AA
# T38 chain: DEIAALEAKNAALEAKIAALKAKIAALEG
# T39: 4H454-AA
# T39 chain: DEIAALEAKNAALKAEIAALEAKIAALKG
# T40: 4H48-AA
# T40 chain: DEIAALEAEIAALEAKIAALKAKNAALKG
# T41: 4H566-AA
# T41 chain: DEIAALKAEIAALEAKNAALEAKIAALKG
# T42: 4H605-AA
# T42 chain: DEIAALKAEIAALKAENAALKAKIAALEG
# T43: 4H678-AA
# T43 chain: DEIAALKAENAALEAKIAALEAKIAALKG
# T44: 4H717-AA
# T44 chain: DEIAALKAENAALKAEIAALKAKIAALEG
# T45: 4H780-AA
# T45 chain: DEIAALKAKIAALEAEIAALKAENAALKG
# T46: 4H794-AA
# T46 chain: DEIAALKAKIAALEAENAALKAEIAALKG
# T47: 4H881-AA
# T47 chain: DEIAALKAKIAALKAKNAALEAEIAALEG
# T48: 4H906-AA
# T48 chain: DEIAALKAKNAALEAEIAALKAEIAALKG
# T49: 4H993-AA
# T49 chain: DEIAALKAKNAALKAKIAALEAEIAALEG
# Tests used:
# 4H3843-bN = target: T1, 4H3843-bN; assay: two-hybrid library CCNG1;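 note: natural log of median RNA to DNA barcode read ratio; higher means stronger binding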
# 4H4001-bN = target: T2, 4H4001-bN; assay: two-hybrid library CCNG1;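 note: natural log of median RNA to DNA barcode read ratio; higher means stronger binding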
# 4H462-bN = target: T3, 4H462-bN; assay: two-hybrid library CCNG1;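 note: natural log of median RNA to DNA barcode read ratio; higher means stronger binding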
# 4H568-bN = target: T4, 4H568-bN; assay: two-hybrid library CCNG1;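 note: natural log of median RNA to DNA barcode read ratio; higher means stronger binding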
# 4H607-bN = target: T5, 4H607-bN; assay: two-hybrid library CCNG1;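 note: natural log of median RNA to DNA barcode read ratio; higher means stronger binding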
# 4H687-bN = target: T6, 4H687-bN; assay: two-hybrid library CCNG1;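 note: natural log of median RNA to DNA barcode read ratio; higher means stronger binding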
# 4H72-bN = target: T7, 4H72-bN; assay: two-hybrid library CCNG1
# 4H797-bN = target: T8, 4H797-bN; assay: two-hybrid library CCNG1
# 4H883-bN = target: T9, 4H883-bN; assay: two-hybrid library CCNG1
# 4H918-bN = target: T10, 4H918-bN; assay: two-hybrid library CCNG1
# 4H953-bN = target: T11, 4H953-bN; assay: two-hybrid library CCNG1
# 4H967-bN = target: T12, 4H967-bN; assay: two-hybrid library CCNG1
# 4H234-AA = target: T13, 4H234-AA; assay: two-hybrid library CCmax
# 4H2354-AA = target: T14, 4H2354-AA; assay: two-hybrid library CCmax; details: mean of both orientations
# 4H2393-AA = target: T15, 4H2393-AA; assay: two-hybrid library CCmax; details: mean of both orientations
# 4H2466-AA = target: T16, 4H2466-AA; assay: two-hybrid library CCmax; details: mean of both orientations
# 4H2505-AA = target: T17, 4H2505-AA; assay: two-hybrid library CCmax; details: mean of both orientations
# 4H2575-AA = target: T18, 4H2575-AA; assay: two-hybrid library CCmax; details: mean of both orientations
# 4H2617-AA = target: T19, 4H2617-AA; assay: two-hybrid library CCmax; details: mean of both orientations
# 4H2642-AA = target: T20, 4H2642-AA; assay: two-hybrid library CCmax; details: mean of both orientations
# 4H2729-AA = target: T21, 4H2729-AA; assay: two-hybrid library CCmax; details: mean of both orientations
# 4H2754-AA = target: T22, 4H2754-AA; assay: two-hybrid library CCmax; details: mean of both orientations
# 4H2837-AA = target: T23, 4H2837-AA; assay: two-hybrid library CCmax; details: mean of both orientations
# 4H2883-AA = target: T24, 4H2883-AA; assay: two-hybrid library CCmax; details: mean of both orientations
# 4H2944-AA = target: T25, 4H2944-AA; assay: two-hybrid library CCmax; details: mean of both orientations
# 4H2949-AA = target: T26, 4H2949-AA; assay: two-hybrid library CCmax; details: mean of both orientations
# 4H3112-AA = target: T27, 4H3112-AA; assay: two-hybrid library CCmax; details: mean of both orientations
# 4H317-AA = target: T28, 4H317-AA; assay: two-hybrid library CCmax; details: mean of both orientations
# 4H3343-AA = target: T29, 4H3343-AA; assay: two-hybrid library CCmax; details: mean of both orientations
# 4H335-AA = target: T30, 4H335-AA; assay: two-hybrid library CCmax
# 4H342-AA = target: T31, 4H342-AA; assay: two-hybrid library CCmax
# 4H3427-AA = target: T32, 4H3427-AA; assay: two-hybrid library CCmax; details: mean of both orientations
# 4H3606-AA = target: T33, 4H3606-AA; assay: two-hybrid library CCmax; details: mean of both orientations
# 4H3627-AA = target: T34, 4H3627-AA; assay: two-hybrid library CCmax; details: mean of both orientations
# 4H3655-AA = target: T35, 4H3655-AA; assay: two-hybrid library CCmax; details: mean of both orientations
# 4H3844-AA = target: T36, 4H3844-AA; assay: two-hybrid library CCmax; details: mean of both orientations
# 4H3921-AA = target: T37, 4H3921-AA; assay: two-hybrid library CCmax; details: mean of both orientations
# 4H429-AA = target: T38, 4H429-AA; assay: two-hybrid library CCmax; details: mean of both orientations
# 4H454-AA = target: T39, 4H454-AA; assay: two-hybrid library CCmax; details: mean of both orientations
# 4H48-AA = target: T40, 4H48-AA; assay: two-hybrid library CCmax; details: mean of both orientations
# 4H566-AA = target: T41, 4H566-AA; assay: two-hybrid library CCmax; details: mean of both orientations
# 4H605-AA = target: T42, 4H605-AA; assay: two-hybrid library CCmax; details: mean of both orientations
# 4H678-AA = target: T43, 4H678-AA; assay: two-hybrid library CCmax; details: mean of both orientations
# 4H717-AA = target: T44, 4H717-AA; assay: two-hybrid library CCmax; details: mean of both orientations
# 4H780-AA = target: T45, 4H780-AA; assay: two-hybrid library CCmax; details: mean of both orientations
# 4H794-AA = target: T46, 4H794-AA; assay: two-hybrid library CCmax; details: mean of both orientations
# 4H881-AA = target: T47, 4H881-AA; assay: two-hybrid library CCmax; details: mean of both orientations
# 4H906-AA = target: T48, 4H906-AA; assay: two-hybrid library CCmax; details: mean of both orientations
# 4H993-AA = target: T49, 4H993-AA; assay: two-hybrid library CCmax; details: mean of both orientations
binder,measurement,setting,value
DKNQQLKQKIQELEQEIQELEWENQELEQ [4H3843-bN],interaction score,4H3843-bN,-1.58
same,interaction score,4H4001-bN,-1.28
same,interaction score,4H462-bN,-0.816
same,interaction score,4H568-bN,-0.869
same,interaction score,4H607-bN,-1.31
same,interaction score,4H687-bN,-1.56
same,interaction score,4H72-bN,-1.71
same,interaction score,4H797-bN,-0.609
same,interaction score,4H883-bN,-0.63
same,interaction score,4H918-bN,-1.05
same,interaction score,4H953-bN,-2.09
same,interaction score,4H967-bN,-1.23
DEIAALEAENAALKAKIAALKAEIAALKG [4H234-AA],interaction score,4H234-AA,1.91
same,interaction score,4H2354-AA,-0.425
same,interaction score,4H2393-AA,0.577
same,interaction score,4H2466-AA,-0.379
same,interaction score,4H2505-AA,1.67
same,interaction score,4H2575-AA,-0.746
same,interaction score,4H2617-AA,-1.32
same,interaction score,4H2642-AA,0.56
same,interaction score,4H2729-AA,1.8
same,interaction score,4H2754-AA,2.04
same,interaction score,4H2837-AA,-1.08
same,interaction score,4H2883-AA,-1.27
same,interaction score,4H2944-AA,-1.71
same,interaction score,4H2949-AA,1.73
same,interaction score,4H3112-AA,-1.22
same,interaction score,4H317-AA,-1.11
same,interaction score,4H3343-AA,-0.996
same,interaction score,4H335-AA,-1.24
same,interaction score,4H342-AA,0.11
same,interaction score,4H3427-AA,-1.32
same,interaction score,4H3606-AA,-0.346
same,interaction score,4H3627-AA,-0.624
same,interaction score,4H3655-AA,-0.983
same,interaction score,4H3844-AA,-1.28
same,interaction score,4H3921-AA,0.388
same,interaction score,4H429-AA,-1.25
same,interaction score,4H454-AA,1.79
same,interaction score,4H48-AA,-0.786
same,interaction score,4H566-AA,0.581
same,interaction score,4H605-AA,-1.45
same,interaction score,4H678-AA,1.31
same,interaction score,4H717-AA,0.359
same,interaction score,4H780-AA,-1.42
same,interaction score,4H794-AA,-1.24
same,interaction score,4H881-AA,-1.05
same,interaction score,4H906-AA,0.324
same,interaction score,4H993-AA,1.77
